The results in this text go back to patent US20100297120A1.

The experiment concerns the target epidermal growth factor receptor (EGFR) on EGFR positive U87 cells (UniProt P00533). Nature of the experiment: FACS, saturation binding to EGFR on cells. A general note: Flow cytometry measures light scatter and fluorescence of single cells or particles in a stream.

Substance “Anti-EGFR-Angiopep-2 conjugate (EGFR antibody monoclonal 528 cross-linked to Angiopep-2 with SATA)” came in with a Half saturation of 1.8 nM. For “EGFR antibody (monoclonal 528 available from ATCC)”, the Bmax (RFU) was found to be 23.6 RFU and the Half saturation came to 1.7 nM.
